This is an account of results in patent US20080003199A1.

The target of this assay is recombinant mature rat IL-33 with N-terminal His-tag (rat) (UniProt Q66H70). In words: cell-based or functional assay.
recombinant mature rat IL-33 with N-terminal His-tag (rat), sequence (Q66H70 109-264): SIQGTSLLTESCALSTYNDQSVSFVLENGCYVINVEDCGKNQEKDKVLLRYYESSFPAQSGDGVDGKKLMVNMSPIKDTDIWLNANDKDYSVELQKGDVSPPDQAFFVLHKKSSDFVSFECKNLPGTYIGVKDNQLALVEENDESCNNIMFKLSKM

Regarding “mouse soluble ST2 (R&D) (from UniProt P14719 27-337)”, the NF-κB promoter activity (luciferase reporter, % increase) in neonatal rat cardiomyocytes amounted to 42%.
